The record followed here is patent US20260297176 (published 2026).

For assay [1], the target named is T1, human IL-11 (human).
T1 chain: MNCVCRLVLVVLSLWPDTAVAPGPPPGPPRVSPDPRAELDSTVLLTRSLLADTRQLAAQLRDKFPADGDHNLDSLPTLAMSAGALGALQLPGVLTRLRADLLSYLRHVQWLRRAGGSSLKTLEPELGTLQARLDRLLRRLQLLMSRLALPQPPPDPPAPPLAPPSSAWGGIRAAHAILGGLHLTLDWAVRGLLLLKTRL
The assay can be described thus: SPR. On the technique in general: SPR reads the build-up and loss of mass on a sensor chip optically.

Assay [2] deals with T2, mouse IL-11 (mouse, UniProt P47873).
T2 chain: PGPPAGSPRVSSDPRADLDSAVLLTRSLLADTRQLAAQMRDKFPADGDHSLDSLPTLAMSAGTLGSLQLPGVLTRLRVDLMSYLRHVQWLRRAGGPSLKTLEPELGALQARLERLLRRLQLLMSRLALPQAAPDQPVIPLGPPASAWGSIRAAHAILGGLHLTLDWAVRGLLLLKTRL
The assay can be described thus: SPR.

For assay [3], the target named is T1, human IL-11. Kind of assay: SPR.
Assay [4] addresses T1, human IL-11. Kind of assay: SPR.
The target of assay [5] is T2, mouse IL-11. Kind of assay: SPR steady state.
In assay [6] the target is T1, human IL-11. The assay can be described thus: SPR 25C.
The target in assay [7] is T2, mouse IL-11. Kind of assay: SPR.

B1: CSJ-A-s-2B11 (antibody, V domains shown)
VH: QVQLKESGPGLVQPSQTLSLTCTVSGFSLDNYNVHWVRQPTGGGLEWLGGIWTDGITDYTSPLRSRLSISRDTSKSQVFLKMKSLQTEDIATYYCARSYYYSLYYFDYWGQGVMVTVSS
VL: DIQMTQSPASLSASLGETVTIECRASEDIYSNLAWYQQKPGDSPQLLIYDAHRLAEGVPSRFSGSGSGTQYSLKINSLHSEDVASYFCQQYDNYNTFGVGTKLDLK
In the case of B1, the Kd (in general, the free concentration of one partner at which half of the binding sites on the other are occupied at equilibrium, for simple one-to-one binding) in assay [1] was 0.0238 nM; in assay [2], 28.2 nM; in assay [3], 0.0213 nM; in assay [4] it was 0.0214 nM; in assay [5], 28.2 nM.

B2: CSI-s-9B9 (antibody, V domains shown)
VH: EVHLQQSGPELVKPGASVKMSCKASGYTFTSYVIHWVKQRPGQGLEWIGNIYPYNDDTNYNEKFKGKATLTSDKSSSTAYMELSSLTSEESAVYFCTRERATYGDLAWFAYWGQGTLVTVSA
VL: NIVLTQSPASLAVSLGQRATISCRASENIDSYGNSFMHWYQQKPGQPPKLLIYLASILESGVPARFSGSGSRTDFTLTIDPVEADDAATYYCQQNNEDPYTFGGGTKLEIK
Turning to B2, the Kd in assay [1] is 0.145 nM; in assay [2] it was 3.77 nM.

B3: GVH5 (D54E)/GVL5 (antibody, V domains shown)
VH: QITLKESGPTLVKPTQTLTLTCTFSGFSLSTSGMVVGWIRQPPGKALEWLAAIDWEGEKYYSPSLKSRLTITKDTSKNQVVLTMTNMDPVDTATYYCARSGNYFEYWGQGTLVTVSS
VL: DIQMTQSPSSLSASVGDRVTITCRTSEDIYNALAWYQQKPGKAPQLLIYDANRLHIGVPSRFSGSGSGTDFTLTISSLQPEDFATYYCQQYYDYPNTFGQGTKLEIK
In the case of B3, in assay [6], the Kd was determined as 0.0966 nM.

B4: GVH5 (D54E)/CVL3 (antibody, V domains shown)
VH: QITLKESGPTLVKPTQTLTLTCTFSGFSLSTSGMVVGWIRQPPGKALEWLAAIDWEGEKYYSPSLKSRLTITKDTSKNQVVLTMTNMDPVDTATYYCARSGNYFEYWGQGTLVTVSS
VL: DNQMTQSPSSLSASVGDRVTITCRTSEDIYNALAWYQQKPGKAPQLLIYDANRLHIGVPDRFSGSGSGTDFTLTISSLQAEDVAVYYCQQYYDYPNTFGQGTKLEIK
In assay [6], B4 registered a Kd of 0.0181 nM.

B5: CVH3 (D54E)/CVL3 + YTE (antibody, V domains shown)
VH: QVQLQESGPGLVKPSQTLSLTCSFSGFSLSTSGMVVSWIRQPPGKALEWLAAIDWEGEKYYNPSLKSRLTVTKDTSNTQVVLTMTNMDPVDTATYYCARSGNYFEYWGQGTLVTVSS
VL: DNQMTQSPSSLSASVGDRVTITCRTSEDIYNALAWYQQKPGKAPQLLIYDANRLHIGVPDRFSGSGSGTDFTLTISSLQAEDVAVYYCQQYYDYPNTFGQGTKLEIK
Take B5: the equilibrium dissociation constant (Kd) in assay [6] was 0.00142 nM.

B6: CVH4 (D54E)/CVL3 + YTE (antibody, V domains shown)
VH: QVQLQESGPGLVKPSQTLSLTCSFSGFSLSTSGMVVSWIRQPPGKALEWLAAIDWEGEKYYNPSLKSRLTVTKDTSKNQVVLTMTNMDPVDTATYYCARSGNYFEYWGQGTLVTVSS
VL: DNQMTQSPSSLSASVGDRVTITCRTSEDIYNALAWYQQKPGKAPQLLIYDANRLHIGVPDRFSGSGSGTDFTLTISSLQAEDVAVYYCQQYYDYPNTFGQGTKLEIK
Molecule B6 registered a Kd in assay [6] of 0.00334 nM.

B7: GVH5 (D54E)/CVL3 + YTE (antibody, V domains shown)
VH: QITLKESGPTLVKPTQTLTLTCTFSGFSLSTSGMVVGWIRQPPGKALEWLAAIDWEGEKYYSPSLKSRLTITKDTSKNQVVLTMTNMDPVDTATYYCARSGNYFEYWGQGTLVTVSS
VL: DNQMTQSPSSLSASVGDRVTITCRTSEDIYNALAWYQQKPGKAPQLLIYDANRLHIGVPDRFSGSGSGTDFTLTISSLQAEDVAVYYCQQYYDYPNTFGQGTKLEIK
Molecule B7 came in with a Kd in assay [6] of 0.00989 nM.

B8: GVH5 (D54E)/GVL5 + YTE (antibody, V domains shown)
VH: QITLKESGPTLVKPTQTLTLTCTFSGFSLSTSGMVVGWIRQPPGKALEWLAAIDWEGEKYYSPSLKSRLTITKDTSKNQVVLTMTNMDPVDTATYYCARSGNYFEYWGQGTLVTVSS
VL: DIQMTQSPSSLSASVGDRVTITCRTSEDIYNALAWYQQKPGKAPQLLIYDANRLHIGVPSRFSGSGSGTDFTLTISSLQPEDFATYYCQQYYDYPNTFGQGTKLEIK
B8: the Kd in assay [6] is 0.0792 nM.

B9: CVH4 (D54E)/CVL3 (antibody, V domains shown)
VH: QVQLQESGPGLVKPSQTLSLTCSFSGFSLSTSGMVVSWIRQPPGKALEWLAAIDWEGEKYYNPSLKSRLTVTKDTSKNQVVLTMTNMDPVDTATYYCARSGNYFEYWGQGTLVTVSS
VL: DNQMTQSPSSLSASVGDRVTITCRTSEDIYNALAWYQQKPGKAPQLLIYDANRLHIGVPDRFSGSGSGTDFTLTISSLQAEDVAVYYCQQYYDYPNTFGQGTKLEIK
In assay [6], B9 came in with a Kd of 0.00748 nM.

B10: CVH3 (D54E)/CVL3 (antibody, V domains shown)
VH: QVQLQESGPGLVKPSQTLSLTCSFSGFSLSTSGMVVSWIRQPPGKALEWLAAIDWEGEKYYNPSLKSRLTVTKDTSNTQVVLTMTNMDPVDTATYYCARSGNYFEYWGQGTLVTVSS
VL: DNQMTQSPSSLSASVGDRVTITCRTSEDIYNALAWYQQKPGKAPQLLIYDANRLHIGVPDRFSGSGSGTDFTLTISSLQAEDVAVYYCQQYYDYPNTFGQGTKLEIK
In the case of B10, in assay [6], the Kd was found to be 0.00501 nM.

B11: CSJ-B-s-3G8 (antibody, V domains shown)
VH: QVTLKESGPGMLQPSKTVSLTCSFSGFSMSTSGMVVSWIRQPSGKSLEWLAAIDWDGEKYYNPSLKSRLTVSKDTSNTQVFLKISSVDIADSATYYCARSGNYFDYWGQGVMVTVSS
VL: DIQMTQSPASLSASLGETVTIECRASEDIYNGLVWYQQKPGKSPQLLIYDANRLHTGVPSRFSGGGSGTQYSLKINSLQSEDVASYFCQQYYDYPNTFGAGTKLELK
On to B11, for which the Kd in assay [7] worked out at 0.159 nM; in assay [1], 0.0174 nM; in assay [2], 0.0502 nM.

B12: VH0/VL0 (antibody, V domains shown)
VH: QVILKESGPGMLQPSKTLSLTCSFSGFSLSTSGMVVSWIRQPSGKSLEWLAAIDWDGEKYYNPSLKSRLTVSKDTSNTQVFLQITTVDIADTATYYCARSGNYFEYWGQGVIVTVSS
VL: DNQMTQSPASLSASLGETVTIECRTSEDIYNALAWYQQKPGKSPQLLIYDANRLHIGVPSRFSGSGSGTQFSLKINSLQSEDVASYFCQQYYDYPNTFGAGTKLELN
In turn, B12 displayed a Kd in assay [6] of 0.00758 nM.

B13: CSJ-A-s-10D10 (antibody, V domains shown)
VH: QVQLKESGPGLVQPSQTLSLTCTVSGFSLTNYHVHWVRQPPGKGLEWMGVMWIDGDTSYNSALRSRLSISRDTSKSQVFLKMSSLQTEDTATYYCAREGLNWFAYWGRGTLVTVSS
VL: DIQMTQSPASLSVSLEEVVTITCKASQGIDDYLSWYQQKPGKSPQLLISDVTSLADGVPSRFSGSRSGTQYSLKISRPQVDDSGIYYCLQSYSTPYTFGAGTKLELK
Consider B13, for which the results for the Kd in assay [1] and in assay [2] were 0.424 nM and 0.875 nM, respectively.
